Source: patent US10227617B2, “Sequestration of carbon dioxide with hydrogen to useful products” (UNIVERSITY OF GEORGIA RESEARCH FOUNDATION, INC., priority 2012, dated 2019)
“Also recorded” adds a separate entry of the source.

Columns and labels:
[1] = tested on: P. furiosus cultures; test: Stability of 3-HP added to P. furiosus cultures; assay type: cell-based, Pyrococcus furiosus
[2] = CoA synthetase assay, substrate hexanoic acid; assay type: biochemical; conditions: six carbon hexanoic acid
Method: (§1) Two assays were used to measure ligase activity, one spectrophotometric and one using high-performance liquid chromatography (HPLC). A discontinuous assay was used to measure substrate-dependent disappearance of CoA at 75° C. The reaction mixture (600 μl) contained 100 mM MOPS-KOH (pH 7.9), 5 mM MgCl2, 2.5 mM ATP, 0.15 mM CoA, and purified enzyme. At each time point, 80 μl of reaction mixture was added to 80 μl cold 5,5′-dithiobis-(2-nitrobenzoic acid) (DTNB). A time point (0 min) was taken before heating. The reaction mixture was incubated for 2 min at 75° C., followed by addition of substrate. Additional time points were taken at 30, 60, 90, 120, and 180 sec after addition of substrate. Absorbance was measured at 412 nm to determine free CoA concentration, based on the concentration of 2-nitro-5-thiobenzoate dianion (NTB^2−) (ε412=14,150 M^−1 cm^−1) (Hawkins et al., 2011, ACS Catal. 1, 1043-1050, Riddles et al., 1983, Methods in Enzymology 91, 49-60). Enzymes were kinetically characterized by varying the concentration of the […] substrate from 0.05 mM to 12 mM, while the other substrate concentrations were held constant. Measurements for specific activity were taken under saturating substrate concentrations (10 mM). Formation of the CoA ester was also confirmed using HPLC (Waters). […]

[3] = 4-hydroxybutyrate-CoA synthetase assay (DTNB; HPLC confirmation); assay type: biochemical
Method: A time point (0 min) was taken before heating.
The soluble, heat-treated lysate was loaded onto the column with binding buffer (50 mM sodium phosphate, 300 mM NaCl, 20 mM imidazole, pH 7.4) and the his-tagged enzyme removed with elution buffer (50 mM sodium phosphate, 300 mM NaCl, 500 mM imidazole, pH 7.4).

[4] = CoA synthetase (acyl-CoA ligase) assay, disappearance of CoA (DTNB), substrate acetate; assay type: biochemical; conditions: saturating substrate concentrations
Method: (§2) Two assays were used to measure ligase activity, one spectrophotometric and one using high-performance liquid chromatography (HPLC). A discontinuous assay was used to measure substrate-dependent disappearance of CoA at 75° C. The reaction mixture (600 μl) contained 100 mM MOPS-KOH (pH 7.9), 5 mM MgCl2, 2.5 mM ATP, 0.15 mM CoA, and purified enzyme. At each time point, 80 μl of reaction mixture was added to 80 μl cold 5,5′-dithiobis-(2-nitrobenzoic acid) (DTNB). A time point (0 min) was taken before heating. The reaction mixture was incubated for 2 min at 75° C., followed by addition of substrate. Additional time points were taken at 30, 60, 90, 120, and 180 sec after addition of substrate. Absorbance was measured at 412 nm to determine free CoA concentration, based on the concentration of 2-nitro-5-thiobenzoate dianion (NTB^2−) (ε412=14,150 M^−1 cm^−1) (Hawkins et al., 2011, ACS Catal. 1, 1043-1050, Riddles et al., 1983, Methods in Enzymology 91, 49-60). Enzymes were kinetically characterized by varying the concentration of the acyl-CoA substrate from 0.05 mM to 12 mM, while the other substrate concentrations were held constant. Measurements for specific activity were taken under saturating substrate concentrations (10 mM). Formation of the CoA ester was also confirmed using HPLC (Waters). […]

[5] = Ligase activity over a range of short-chain linear organic acids; assay type: biochemical
Method: as §1

[6] = CoA synthetase assay (DTNB), substrate propionate; assay type: biochemical; conditions: saturating substrate concentrations
Method: as §2

[7] = molecular target: T1, E9 (Metallosphaera sedula, UniProt A4YGN0); test: NADPH-dependent assay for E9 in cell-free extracts; assay type: biochemical
T1 construct: expressed in transfected cells; host or cells: Pyrococcus furiosus strain MW43 (SP2B operon integrated at genome region 2); cell-free extract
T1 sequence (A4YGN0 1-360): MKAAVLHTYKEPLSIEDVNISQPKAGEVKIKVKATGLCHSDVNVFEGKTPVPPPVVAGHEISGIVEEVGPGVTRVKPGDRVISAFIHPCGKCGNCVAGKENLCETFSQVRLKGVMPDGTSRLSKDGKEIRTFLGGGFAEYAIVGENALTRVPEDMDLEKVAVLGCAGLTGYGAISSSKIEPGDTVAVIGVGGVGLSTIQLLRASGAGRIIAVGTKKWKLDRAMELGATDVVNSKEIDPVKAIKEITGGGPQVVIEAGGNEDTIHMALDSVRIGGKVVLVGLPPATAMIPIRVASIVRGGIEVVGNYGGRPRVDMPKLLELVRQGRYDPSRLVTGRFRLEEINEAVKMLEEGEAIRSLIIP
Method: NADPH-dependent assay for E9 of the SP2B subpathway (FIG. 36). Assays were carried out in sealed anaerobic cuvettes at 75° C. containing 100 mM MOPS pH 7.5 (measured at room temperature), 5 mM MgCl2, 5 mM DTT, 1 mM NADPH and the cell-free extract of P. furiosus (0.25 mg/ml). After addition of 1 mM succinic semialdehyde, NADPH oxidation was determined by the absorbance at 340 nm and rates were calculated based on the difference before and after the addition of the succinic semialdehyde.

O=C(O)CCO [3-HP, 3-hydroxypropionic acid]
stability when added to P. furiosus cultures [1]: stable

B1: Msed_0394: recombinant M. sedula enzyme with 4-hydroxybutyrate:CoA ligase activity, annotated AMP-dependent synthetase and ligase, SEQ ID NO:13 (protein, listed as Metallosphaera sedula)
chain: MGGFKIPNYEGVDPTGSWYSVLTPLLFLERAGKYFKDKTAVVYRDSRYTYSTFYDNVMVQASALMRRGFSREDKLSFISRNRPEFLESFFGVPYAGGVLVPINFRLSPKEMAYIINHSDSKFVVVDEPYLNSLLEVKDQIKAEIILLEDPDNPSASETARKEVRMTYRELVKGGSRDPLPIPAKEEYSMITLYYTSGTTGLPKGVMHHHRGAFLNAMAEVLEHQMDLNSVYLWTLPMFHAASWGFSWATVAVGATNVCLDKVDYPLIYRLVEKERVTHMCAAPTVYVNLADYMKRNNLKFSNRVHMLVAGAAPAPATLKAMQEIGGYMCHVYGLTETYGPHSICEWRREWDSLPLEEQAKLKARQGIPYVSFEMDVFDANGKPVPWDGKTIGEVVMRGHNVALGYYKNPEKTAESFRDGWFHSGDAAVVHPDGYIEIVDRFKDLINTGGEKVSSILVEKTLMEIPGVKAVAVYGTPDEKWGEVVTARIELQEGVKLTEEEVIKFCKERLAHFECPKIVEFGPIPMTATGKMQKYVLRNEAKAKANKEKS
activity with hexanoic acid [2]: No activity | production of 4HB-CoA from 4HB and CoA ([3]; reversed-phase HPLC): confirmed | rate of ligation of CoA to 4HB ([3]; substrate 4HB): 0.22 µmol·min/mg

B2: Msed_1353-G424: single substitution mutant (Trp424 to Gly) of acetate/propionate synthetase Msed_1353, SEQ ID NO:18 (protein, listed as Metallosphaera sedula)
chain: MSQPENESGLPFQEKVVPELLKHRLVTPEEYLRIHKKTVENYQEYWESVAKELDWFKPWEKALDDSHPPFYKWFVGGELNASYLAVDRHANSWRRNKVAIIWEGEPWENGPKEVRKLTYLDLYREVNRAAYLLKEVYGLKKGDTIGIYLPMIPELPIFMLAAARLGVAFTVVFSGFSAQAVADRMNDADTKLLITADGGWRRGKVIPLKEIVDKALETATTVKNVLVVRRTGTEISMKPGRDAYLHDVMSKVPIKAYVEPERVKSEDPLYILYTSGTTGKPKGIIHDTGGYMTLLHNTMKLVFDIRDTDVFWCTADIGWVTGHSYIVFGPLQEGATEVMYEGALDFPEPDRWVSIIERHQVSILYTSPTAIRTFMKQGEQWIKKHDVSSVRLMHSVGEPINPEAWRWFHKLVGRGQVPFGSTWGMTETGGIMISHMPGGYLVPMKPGTNGPPLLGIETNVFDEEGKPMPEEQKGYLVITKPWPGMPLTINKDPERYVKVYWNKFPNVFYAGDYAIKDRDGYFWILGRADEVMKIAGHRIGTYELESALVQHPAIAEAAVVGVPDPVRGEVAEAFVILRSGVEPSAKLREEIVKFVRENFGPIAVFREIHFVSKLPKTRSGKIMRRVIKAVATNSPVGDVTTLEDEASVEEVKKAFQELKEQVGK
specific activity [4]: 3.6 µmol/min/mg | substrates on which activity was shown [5]: activity on C4-C8 substrates; also recorded: activity on 3HP, 4HB, valerate, hexanoate, and even octanoate | decrease of activity of mutant versus native enzyme ([5]; on acetate and propionate): 60% | specific activity ([3]; 4HB, saturating substrate concentrations): 1.8 µmol/min/mg | specific activity [6]: 3.5 µmol/min/mg

B3: E9: M. sedula succinate semialdehyde reductase, SEQ ID NO:12, in extracts of strain MW43 (protein, listed as Metallosphaera sedula)
chain: MKAAVLHTYKEPLSIEDVNISQPKAGEVKIKVKATGLCHSDVNVFEGKTPVPPPVVAGHEISGIVEEVGPGVTRVKPGDRVISAFIHPCGKCGNCVAGKENLCETFSQVRLKGVMPDGTSRLSKDGKEIRTFLGGGFAEYAIVGENALTRVPEDMDLEKVAVLGCAGLTGYGAISSSKIEPGDTVAVIGVGGVGLSTIQLLRASGAGRIIAVGTKKWKLDRAMELGATDVVNSKEIDPVKAIKEITGGGPQVVIEAGGNEDTIHMALDSVRIGGKVVLVGLPPATAMIPIRVASIVRGGIEVVGNYGGRPRVDMPKLLELVRQGRYDPSRLVTGRFRLEEINEAVKMLEEGEAIRSLIIP
half-life of E9 ([7]; at 90° C, cell-free extracts): ~30 min | assay temperature of maximum E9 activity ([7]; cell extracts): above 80 °C
